From US20260167712A1, “INHIBITORY ANTIBODIES AGAINST GLUT1” (ICOSAGEN CELL FACTORY OÜ, priority 2022, published 2026)
“Also recorded” adds a separate entry of the source.

T1: SLC2A3 pseudotyped VLPs (Homo sapiens, UniProt P11169)
T1 sequence (P11169 1-496): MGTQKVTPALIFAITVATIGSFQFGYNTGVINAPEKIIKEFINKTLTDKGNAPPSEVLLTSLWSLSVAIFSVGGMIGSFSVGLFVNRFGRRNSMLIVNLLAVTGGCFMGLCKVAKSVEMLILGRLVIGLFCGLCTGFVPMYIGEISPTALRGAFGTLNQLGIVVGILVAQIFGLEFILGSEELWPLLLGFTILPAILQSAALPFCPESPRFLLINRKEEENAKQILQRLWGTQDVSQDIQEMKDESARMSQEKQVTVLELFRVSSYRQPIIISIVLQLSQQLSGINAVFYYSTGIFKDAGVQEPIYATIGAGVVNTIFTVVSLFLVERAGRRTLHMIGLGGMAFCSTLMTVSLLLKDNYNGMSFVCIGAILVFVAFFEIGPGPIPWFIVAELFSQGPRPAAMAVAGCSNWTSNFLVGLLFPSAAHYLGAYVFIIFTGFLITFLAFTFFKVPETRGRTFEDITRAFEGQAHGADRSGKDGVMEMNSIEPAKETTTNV


Legend:
[1] = tested on: PANC1 pancreatic cancer cell line; assay: Cell proliferation inhibition assay (Incucyte), PANC1; type: cell-based; details: co-treatment with IACS-010759, compared to single agents, FIG. 11B
Experimental: (§1) Incucyte S3 Live cell analysis instrument and Cell-by-Cell analysis software module (Sartorius) were used to evaluate the effect of anti-SLC2A1 antibodies on cancer cell proliferation label-free (FIGS. 5-11). MCF7, PC3 or PANC1 or MIAPACA2 cells were plated on flat bottom tissue culture 96-well plate in […] medium (Ximbio) supplemented with 2.5% FBS. Cells were incubated overnight and 0.02 nM to 13 μM anti-SLC2A1 antibodies, anti-HEL isotype control, PBS or BAY-876 were added to the cells alone or in combination with metformin (CaymanChem), phenformin (Sigma Aldrich) or IACS-010759 (CaymanChem). Cell confluence or object count was measured for 24 to 96 hours with Incucyte S3 and normalized to timepoint 0 h or 4h. anti-SLC2A1 antibodies inhibit cancer cell proliferation alone and especially in combination with complex-I inhibitors metformin, phenformin and IACS-010759. Exemplary antibodies 1G2 #9, 2A2 #12, 2E5 #22, 5G5 #30, 6F12 #33, 7C3 #39 and R14 #54 were used in proliferation assays.

[2] = Body weight in MiaPaca2 xenograft study; type: in vivo, mice; details: during treatments, FIG. 12B
Source text: (§2) Hsd:Athymic Nude-Foxn1^nu mice (10 per group) were inoculated with 5e6 MiaPaca2 cells/mouse subcutaneously.

[3] = tested on: MIAPACA2 pancreatic cancer cell line; assay: Cell proliferation inhibition assay (Incucyte), MIAPACA2; type: cell-based; details: co-treatment with IACS-010759, compared to single agents, FIG. 11C
Experimental: as §1

[4] = tested on: MiaPaca2 xenograft tumors; assay: Antitumor efficacy against MiaPaca2 xenograft tumors; type: in vivo, mice; details: 6F12 #33 200 ug per mouse IP every 72 h plus daily Phenformin 20 mg/kg IP, versus phenformin alone, FIG. 12A
Source text: as §2

SLC2A3 pseudotyped VLPs = target: T1, SLC2A3 pseudotyped VLPs; assay: ELISA-based VLP binding assay, SLC2A3; details: compared to MOCK VLPs, FIG. 3
Experimental: An ELISA-based VLP binding assay was carried out to compare the EC50 values of antibody clones (FIG. 1). Similarly, ELISA based VLP binding assay was performed to compare the binding of the antibodies to different glucose transporters (FIG. 3). MaxiSorp™ high-capacity binding ELISA plate (Thermo Fisher Scientific, US) were coated with 5 μg/mL SLC2A1, SLC2A2, SLC2A3, SLC2A4 pseudotyped VLPs or MOCK VLPs in PBS overnight. The plate was washed and blocked for 1 h with 0.05% Tween 20, 2% BSA in PBS. Serial dilutions of antibodies were incubated on a washed plate for 1 hour, followed by a 1-hour incubation with goat anti-human IgG horse radish peroxidase (HRP) conjugated (Invitrogen) antibody. TMB (3,3′,5,5′-Tetramethylbenzidine) Solution VII (Biopanda Diagnostics) was used as a substrate for HRP and 0.5 M H2SO4 was used as stop solution. After every step, the wells were washed with 0.05% Tween 20, 0.1% Proclin 300 PBS solution. Absorption at 450 nm was measured with Thermo Scientific™ Multiskan™ FC Microplate Photometer. Exemplary wise used antibodies 1G2 #9, 2A2 #12, 2E5 #22, 5G5 #30, 6F12 #33, 7C3 #39 all bound SLC2A1 VLPs with low nanomolar EC50 values (FIG. 1).

[5] = tested on: PC3 prostate cancer cell line; assay: Cell proliferation inhibition assay (Incucyte), PC3; type: cell-based; details: co-treatment with IACS-010759, compared to single agents, FIG. 11A
Experimental: as §1

Molecule	PANC1 cell growth in combination with IACS-010759 [1]	body weight [2]	MIAPACA2 cell growth in combination with IACS-010759 [3]	tumor growth, cotreatment with phenformin [4]	binding to SLC2A3 VLPs (SLC2A3 pseudotyped VLPs)	PC3 cell growth in combination with IACS-010759 [5]
6F12 #33 (antibody, V domains shown) VH: AVTLDESGGGLQTPGGALSLVCKASGFTFSDHAIFWVRQAPDKGLEFVAAISSGTGSWTAYATVVKGRATISRDNGQSTVRLQLNNLRAADTATYYCAKGAGSACCYAGSIDAWGHGTEVIVSS VL: ALTQPSSVSANPGETVKITCSGGSSSSYYGWYQQKSPGSAPVTLIYYNDKRPSDIPSRFSGSKSGSTATLTITGVQVEDEAVYYCGTGDGSFAIFGAGTTLTVL	dramatic growth reduction	No changes; also recorded: remained unchanged	dramatic growth reduction	statistically significant tumor growth inhibition	did not bind	
2E5 #22 (antibody, V domains shown) VH: AVTLDESGGGLQTPGGALSLVCKASGFTFSTKGMGWVRQTPGKGLEWVAGISSMRRYTYYAPAVKGRATISRDNGQSTVRLQLSSLRAEDSGTYYCARDATYCSWTTSTCGWSGGTIDAWGHGTEVIVSS VL: ALTQPSSVSANLGGTVKITCSGGSGNYGWYQQKSPGSVPVTVIYSNDKRPSDIPSRFSGSGSGSTATLTITGVQVEDEAVYFCGSRDSSYVGLFGAGTTLTVL					did not bind; also recorded: Some binding	strong synergistic growth inhibition
